# Measured values from patent publication US20160222086.
# Columns and labels:
# [1] = tested on: T1, thrombin-activated 80 K-PEG-[O]-rFVIII
# T1 sequence: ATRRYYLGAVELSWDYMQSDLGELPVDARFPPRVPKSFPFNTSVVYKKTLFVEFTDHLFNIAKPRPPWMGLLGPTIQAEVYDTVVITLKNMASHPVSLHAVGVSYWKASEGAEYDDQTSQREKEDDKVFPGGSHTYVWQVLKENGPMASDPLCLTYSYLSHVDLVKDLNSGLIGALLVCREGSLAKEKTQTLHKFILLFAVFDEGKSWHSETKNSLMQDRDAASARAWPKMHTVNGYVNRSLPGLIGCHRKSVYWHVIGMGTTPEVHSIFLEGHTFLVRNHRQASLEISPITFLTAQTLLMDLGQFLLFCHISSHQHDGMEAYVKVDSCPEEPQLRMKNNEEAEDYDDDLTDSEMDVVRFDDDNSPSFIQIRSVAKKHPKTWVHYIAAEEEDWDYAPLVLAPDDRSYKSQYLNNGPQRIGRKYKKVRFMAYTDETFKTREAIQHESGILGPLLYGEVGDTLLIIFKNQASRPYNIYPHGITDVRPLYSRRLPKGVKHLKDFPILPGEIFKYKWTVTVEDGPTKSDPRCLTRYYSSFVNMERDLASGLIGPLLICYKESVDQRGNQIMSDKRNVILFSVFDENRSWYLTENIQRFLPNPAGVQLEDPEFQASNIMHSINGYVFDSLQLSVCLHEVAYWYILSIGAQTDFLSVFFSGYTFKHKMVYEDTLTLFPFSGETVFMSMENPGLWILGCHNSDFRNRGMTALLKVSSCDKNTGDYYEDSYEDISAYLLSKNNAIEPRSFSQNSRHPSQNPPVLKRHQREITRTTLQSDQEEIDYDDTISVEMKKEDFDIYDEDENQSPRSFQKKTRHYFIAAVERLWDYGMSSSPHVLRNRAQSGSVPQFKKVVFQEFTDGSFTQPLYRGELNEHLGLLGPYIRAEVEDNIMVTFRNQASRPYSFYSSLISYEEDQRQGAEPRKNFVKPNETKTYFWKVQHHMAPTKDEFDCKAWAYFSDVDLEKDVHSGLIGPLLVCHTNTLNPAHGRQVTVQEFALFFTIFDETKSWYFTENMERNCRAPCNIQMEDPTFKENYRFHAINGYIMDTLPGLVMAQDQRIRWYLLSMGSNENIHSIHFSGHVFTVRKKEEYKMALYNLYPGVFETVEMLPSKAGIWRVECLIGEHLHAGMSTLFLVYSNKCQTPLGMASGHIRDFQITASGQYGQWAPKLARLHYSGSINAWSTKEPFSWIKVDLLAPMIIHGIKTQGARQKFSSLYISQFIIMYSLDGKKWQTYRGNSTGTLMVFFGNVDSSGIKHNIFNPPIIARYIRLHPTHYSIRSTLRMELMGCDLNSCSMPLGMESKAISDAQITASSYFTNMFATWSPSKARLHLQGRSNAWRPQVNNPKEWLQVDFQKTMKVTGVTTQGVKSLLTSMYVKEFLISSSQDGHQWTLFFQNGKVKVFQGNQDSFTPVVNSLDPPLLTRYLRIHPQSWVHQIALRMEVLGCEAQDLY
# [2] = tested on: T2, thrombin-activated rFVIII (rFVIIIa), made from the recombinant B-domain truncated Factor VIII N8
# T2 sequence: T1 sequence
# [3] = tested on: T3, thrombin-activated 40 K-PEG-[O]-rFVIII
# T3 sequence: T1 sequence
substance,measurement,setting,value
FIXa,K1/2FIXa,[1],1.11 nM
same,apparent Kd of rFVIIIa-FIXa interaction (K1/2FIXa),[1],O-linked glycoPEGylation did not affect the apparent Kd of rFVIIIa-FIXa interaction (K1/2FIXa)
same,K1/2FIXa,[2],0.88 nM
same,K1/2FIXa,[3],0.42 nM
same,apparent Kd of rFVIIIa-FIXa interaction (K1/2FIXa),[3],O-linked glycoPEGylation did not affect the apparent Kd of rFVIIIa-FIXa interaction (K1/2FIXa)
